The subject of one test is mice hippocampi. Briefly: Acetylcholine quantification in hippocampus after microinjection. The test is classed as in vivo, mouse.
Another test deals with C57BL/6J mice. Briefly: Microinjection into the hippocampus of mice. The test is classed as in vivo, mouse. The settings on record: 1 μL of 20 μM SsTx and 40 μM retigabine mixture in the hippocampus.
Another test has as its system thoracic aorta. The arrangement: species or system Sprague-Dawley rats.
For the next test, the system named is bronchial rings. Also on record: species or system Sprague-Dawley rats.
For the next test, the target named is KCNQ4 (Homo sapiens, UniProt P56696). Put plainly: Whole-cell patch clamp of KCNQ4 currents in HEK293T cells. In kind it is cell-based. The settings on record: for effect of alanine substitution on inhibition of KCNQ4: 10 μM and 50 μM toxin mutants compared with WT SsTx (Fig. 2 A and B); for effect of conservative replacement on inhibition of KCNQ channels: 10 μM toxin, KCNQ4 currents (Fig. S2D). A general note: In patch-clamp work, channel activity is measured electrically.

A further test addresses KCNQ4_D266G (UniProt P56696).
In the next test the target is KCNQ4_D288A (UniProt P56696).

Bridge positions count the residues as written; N and C are the ends. Ends that are not written are not given here.

The values that follow come from publication PMC5816164 (Proceedings of the National Academy of Sciences of the …, 2018).

Chain of KCNQ4 (P56696 whole entry): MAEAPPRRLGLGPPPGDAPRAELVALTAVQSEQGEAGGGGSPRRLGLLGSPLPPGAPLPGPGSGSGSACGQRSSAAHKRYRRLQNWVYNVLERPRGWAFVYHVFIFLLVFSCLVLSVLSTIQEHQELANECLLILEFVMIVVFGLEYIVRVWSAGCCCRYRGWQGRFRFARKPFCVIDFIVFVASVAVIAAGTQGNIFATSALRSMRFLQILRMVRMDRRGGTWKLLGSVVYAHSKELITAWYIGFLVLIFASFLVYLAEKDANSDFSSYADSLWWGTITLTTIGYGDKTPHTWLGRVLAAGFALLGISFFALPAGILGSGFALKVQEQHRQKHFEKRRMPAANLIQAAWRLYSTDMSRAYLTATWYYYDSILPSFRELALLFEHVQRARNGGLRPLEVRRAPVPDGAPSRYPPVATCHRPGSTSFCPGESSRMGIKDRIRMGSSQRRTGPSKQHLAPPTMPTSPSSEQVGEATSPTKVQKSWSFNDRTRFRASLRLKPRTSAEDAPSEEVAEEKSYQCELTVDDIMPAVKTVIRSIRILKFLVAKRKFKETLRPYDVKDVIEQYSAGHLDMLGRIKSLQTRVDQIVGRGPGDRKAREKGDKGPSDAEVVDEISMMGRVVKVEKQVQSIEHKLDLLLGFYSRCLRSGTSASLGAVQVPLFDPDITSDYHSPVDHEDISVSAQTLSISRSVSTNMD
Chain of KCNQ4_D288A (P56696 whole entry D288A): as the sequence (P56696 whole entry) above, with D288A counted along it
Chain of KCNQ4_D266G (P56696 whole entry D266G): as the sequence (P56696 whole entry) above, with D266G counted along it

Turning to `O=C1N(c2ccccc2)c2ccccc2C1(Cc1ccncc1)Cc1ccncc1` [linopirdine], the “increase of acetylcholine concentration” value in the test with mice hippocampi (mice hippocampi, 1 μL of 100 μM, 30 min after microinjection, n = 6) is roughly 81.8%.
Take `CCOC(=O)Nc1ccc(NCc2ccc(F)cc2)cc1N` [retigabine]: the “effect on SsTx-induced seizure” value with C57BL/6J mice is given as “inhibited”. Besides, the “effect on SsTx-induced increase in acetylcholine secretion” value in the test on mice hippocampi (mixture of 10 μM SsTx and 40 μM RTG, n = 3) is “inhibited the SsTx-induced increase in spiking frequency and acetylcholine secretion”. The “effect on vessel toxicity induced by centipede crude venom and SsTx” value in the test with thoracic aorta was “significantly reduced”. For the same molecule, the “effect on bronchial ring contraction induced by crude venom or SsTx” value with bronchial rings is recorded as “contraction can be reduced by retigabine”.
“K10A: SsTx single point mutant, alanine substitution of K10 (EVIKKDTPYAKRKFPYKSECLKACATSFTGGDESRIQEGKPGFFKCTCYFTTG)”: the “effect of alanine substitution on inhibition of KCNQ4” value with KCNQ4 is on record as “reduces the toxin’s inhibitory effect on KCNQ4”.
Same read-out and setting: the result for “K11A: SsTx single point mutant, alanine substitution of K11 (EVIKKDTPYKARKFPYKSECLKACATSFTGGDESRIQEGKPGFFKCTCYFTTG)” reads “reduces the toxin’s inhibitory effect on KCNQ4”.
The same measure, in the same setting: for “K13A: SsTx single point mutant, alanine substitution of K13 (EVIKKDTPYKKRAFPYKSECLKACATSFTGGDESRIQEGKPGFFKCTCYFTTG; ends and bridges not checked; cysteine pairing not given here)” the value was “reduces the toxin’s inhibitory effect on KCNQ4”.
As to “K13R: SsTx point mutant, lysine 13 replaced with arginine (EVIKKDTPYKKRRFPYKSECLKACATSFTGGDESRIQEGKPGFFKCTCYFTTG; ends and bridges not checked; cysteine pairing not given here)”, the “effect of conservative replacement on inhibition of KCNQ channels” value with KCNQ4 was “minimal influence on SsTx inhibition of KCNQ channels”.
“R12A: SsTx single point mutant, alanine substitution of R12 (EVIKKDTPYKKAKFPYKSECLKACATSFTGGDESRIQEGKPGFFKCTCYFTTG; ends and bridges not checked; cysteine pairing not given here)”: the “effect of alanine substitution on inhibition of KCNQ4” value with KCNQ4 is recorded as “reduces the toxin’s inhibitory effect on KCNQ4”.
As to “R12K: SsTx point mutant, arginine 12 replaced with lysine (EVIKKDTPYKKKKFPYKSECLKACATSFTGGDESRIQEGKPGFFKCTCYFTTG; ends and bridges not checked; cysteine pairing not given here)”, in the test with KCNQ4, the “effect of conservative replacement on inhibition of KCNQ channels” value was “minimal influence on SsTx inhibition of KCNQ channels”.

B1: Ssm Spooky Toxin (SsTx) (peptide)
chain: EVIKKDTPYKKRKFPYKSECLKACATSFTGGDESRIQEGKPGFFKCTCYFTTG
modifications: disulfide 20-46, 24-48
On to B1, for which the inhibitory activity lost in the presence of 10 μM SsTx, against WT KCNQ4 with KCNQ4_D266G is 99%; in the test with KCNQ4_D288A, 97%.
